B1: chimera protein of the DNA-binding region of GAL4 and the bHLH-PAS region part of the present transcription regulatory factor (mNXF) (other)
chain: MKLLSSIEQACDICRLKKLKCSKEKPKCAKCLKNNWECRYSPKTKRSPLTRAHLTEVESRLERLEQLFLLIFPREDLDMILKMDSLQDIKALLTGLFVQDNVNKDAVTDRLASVETDMPLTLRQHRISATSSSEESSNKGQRQLTVSMYRSTKGASKARRDQINAEIRNLKELLPLAEADKVRLSYLHIMSLACIYTRKGVFFAGGTPLAGPTGLLSAQELEDIVAALPGFLLVFTAEGKLLYLSESVSEHLGHSMVDLVAQGDSIYDIIDPADHLTVRQQLTMPSALDADRLFRCRFNTSKSLRRQSSGNKLVLIRGRFHAHPPGAYWAGNPVFTAFCAPLEPRPRPGPGPGPGPGPASLFLAMFQSRHAKDLALLDVSESVLIYLGFERSELLCKSWYGLLHPEDLAQASSQHYRLLAESGDIQAEMVVRLQAKHGGWTWIYCMLYSEGPEGPFTANNYPISDT
notes: Expressed in HeLa cells for the two-hybrid assay; also called Gal4-mNXF; Gal4-NXF
B2: chimera protein of the VP16 transcription activating region and the bHLH-PAS region part of the present transcription activating factor (mNXF) (other)
chain: MYRSTKGASKARRDQINAEIRNLKELLPLAEADKVRLSYLHIMSLACIYTRKGVFFAGGTPLAGPTGLLSAQELEDIVAALPGFLLVFTAEGKLLYLSESVSEHLGHSMVDLVAQGDSIYDIIDPADHLTVRQQLTMPSALDADRLFRCRFNTSKSLRRQSSGNKLVLIRGRFHAHPPGAYWAGNPVFTAFCAPLEPRPRPGPGPGPGPGPASLFLAMFQSRHAKDLALLDVSESVLIYLGFERSELLCKSWYGLLHPEDLAQASSQHYRLLAESGDIQAEMVVRLQAKHGGWTWIYCMLYSEGPEGPFTANNYPISDT
notes: also called VP16-NXF; pVP16-NXF (bHLH-PAS) product

Assays:
[1] = biological target: T1, chimera protein of the VP16 transcription activating region and the bHLH-PAS region part of Sim2 (human, UniProt Q14190 1-500); test: mammalian two-hybrid assay in HeLa cells (Gal4-NXF + VP16-X, luciferase reporter)
T1 construct: domain: bHLH-PAS region part; also called VP16-Sim2; pVP16-Sim2 (bHLH-PAS) product
T1 sequence: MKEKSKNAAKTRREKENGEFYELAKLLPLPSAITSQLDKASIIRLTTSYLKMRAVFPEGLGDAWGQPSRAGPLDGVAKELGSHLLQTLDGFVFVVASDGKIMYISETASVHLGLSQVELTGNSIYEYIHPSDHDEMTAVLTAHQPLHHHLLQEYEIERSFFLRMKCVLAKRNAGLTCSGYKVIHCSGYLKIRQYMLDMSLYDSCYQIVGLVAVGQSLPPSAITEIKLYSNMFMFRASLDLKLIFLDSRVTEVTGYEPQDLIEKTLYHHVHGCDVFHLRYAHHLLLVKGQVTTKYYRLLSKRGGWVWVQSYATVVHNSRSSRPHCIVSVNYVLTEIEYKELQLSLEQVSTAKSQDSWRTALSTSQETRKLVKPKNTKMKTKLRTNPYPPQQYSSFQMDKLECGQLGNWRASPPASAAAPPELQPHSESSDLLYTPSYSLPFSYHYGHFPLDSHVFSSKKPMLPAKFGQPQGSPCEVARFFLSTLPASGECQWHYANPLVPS

[2] = biological target: T2, chimera protein of the VP16 transcription activating region and the bHLH-PAS region part of Clock (human, UniProt O15516 1-530); test: as above
T2 construct: domain: bHLH-PAS region part; also called VP16-Clock; pVP16-Clock (bHLH-PAS) product
T2 sequence: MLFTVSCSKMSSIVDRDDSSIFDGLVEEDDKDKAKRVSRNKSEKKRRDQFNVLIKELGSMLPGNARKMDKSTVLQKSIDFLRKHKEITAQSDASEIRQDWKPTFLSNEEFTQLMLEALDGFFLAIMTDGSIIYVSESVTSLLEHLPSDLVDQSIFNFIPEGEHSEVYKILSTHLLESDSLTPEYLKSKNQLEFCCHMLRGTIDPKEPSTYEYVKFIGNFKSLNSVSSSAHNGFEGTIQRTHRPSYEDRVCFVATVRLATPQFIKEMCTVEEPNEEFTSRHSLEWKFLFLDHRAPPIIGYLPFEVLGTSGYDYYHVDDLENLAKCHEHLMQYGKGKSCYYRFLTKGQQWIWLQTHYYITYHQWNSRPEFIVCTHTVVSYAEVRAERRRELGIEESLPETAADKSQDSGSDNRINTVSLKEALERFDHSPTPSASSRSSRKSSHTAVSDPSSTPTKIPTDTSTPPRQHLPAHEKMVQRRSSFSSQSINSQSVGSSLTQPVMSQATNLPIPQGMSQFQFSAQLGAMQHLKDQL

[3] = biological target: B1; test: mammalian two-hybrid assay in HeLa cells (Gal4-NXF + VP16-NXF, luciferase reporter)

Row | Binder | binding result [1] | binding result [2] | binding result [3]
1 | B1 | no binding | no binding | –
2 | B2 | – | – | no binding
